Measured values from patent US6982170.

Tests used:
[1] = system: thrombin resistant mutant FGF-1R136K
[2] = system: human wild type FGF-1 (fibroblast growth factor-1)
[3] = target: human wild type FGF-1 (fibroblast growth factor-1) (human) (UniProt P05230); assay: cell-based or functional assay

Substance	degradation of FGF-1 on Western blot [1]	size of the cleavage band on Western blot [1]	degradation of FGF-1 on Western blot (bands at 17 kD and 14 kD), no heparin [2]	BAEC growth (cell number after 3 days) with thrombin-pretreated growth factor [3] [U/ml]
thrombin	FGF-1R136K, even in the absence of heparin, was relatively resistant to thrombin degradation	the band detected upon treatment of FGF-1R136K mutant is slightly larger than the degradation band from wild type FGF-1	wild-type FGF-1 was degraded by even the lowest concentration of thrombin used (0.5 U/ml)	–
thrombin (enzyme)	–	–	–	< 1
